The data set relates to K4 kissing-loop RNA reporter. Kind of data set: apparent KD of K4 kissing-loop reporter; higher = weaker reporter binding. To be noted: Eterna round: R107. On the procedure: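 RNA-MaP round R107: designed RNA switches with theophylline, tryptophan, arginine or FMN aptamers are transcribed on-chip within common flanks. They are titrated with a labelled K4 kissing-loop RNA reporter in RNA-MaP buffer (100 mM Tris pH 7.5, 80 mM KCl, 4 mM MgCl2), without ligand or with the indicated ligand. Median apparent KD per design.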

[1] abbreviates: input ligand: theophylline 20 uM.
Where [2] appears, read: input ligand: tryptophan 2.4 mM.
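Note: bound reporter read as fluorescence of individual clusters on recovered sequencing chips by microscopy, with normalized cluster intensities fitted with a binding model.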

As for “GCCGUAGAUUGAAGGAGCGGUUCAUCAAUUCAAGUCGAGUGAUGUUCGACGAUUCUCAGUAACCAGGUAGGUCGCAAUCUACGGC”, the “apparent KD of K4 kissing-loop reporter” value amounted to 175 nM (input ligand: FMN 200 uM); 142 nM (input ligand: arginine 13.2 mM); 150 nM (input ligand: none); 171 nM under setting [1]; 143 nM under setting [2].

As to “GCCUAGCAGGGAAGGAGCGCCAUAAGAAGUAAAGGAGGGAGUUGAGUGAUGUUCAAAAUGUGGCAGGUAGGUCGCCCUGCUAGGC [KL-SSArg B13]”, the “apparent KD of K4 kissing-loop reporter” value came to 705 nM (input ligand: FMN 200 uM); 388 nM (input ligand: arginine 13.2 mM); 635 nM (input ligand: none); 490 nM under setting [1]; 507 nM under setting [2].

On to “GCGCCGGUCUGCUUUAGAGUGAUGUUCUCCCGAGGACCGGUACGGCCGCCACUCGGCCAACGCUAUUAUCUUUGAUCCGCGGUGC [theeternabot_exclusion_KL_Trp_A_41]”, for which the “apparent KD of K4 kissing-loop reporter” value (input ligand: FMN 200 uM) came to 1300 nM; the “apparent KD of K4 kissing-loop reporter” value (input ligand: arginine 13.2 mM) is 840 nM; the “apparent KD of K4 kissing-loop reporter” value (input ligand: none) was 1000 nM; the “apparent KD of K4 kissing-loop reporter” value under setting [1] amounted to 1120 nM; the “apparent KD of K4 kissing-loop reporter” value under setting [2] was determined as 948 nM.

As for “GCGCGGCAGGCGGCCGCCACUCUGACGAGCCACAGUGAUGUUGUGGUCGGAGAAACGUCUUCAUAGAGGACCGGGUUUGUUGUUC [Same State Typtophan A GF 25]”, the “apparent KD of K4 kissing-loop reporter” value (input ligand: FMN 200 uM) is 215 nM; the “apparent KD of K4 kissing-loop reporter” value (input ligand: arginine 13.2 mM) was found to be 186 nM; the “apparent KD of K4 kissing-loop reporter” value (input ligand: none) came to 226 nM; the “apparent KD of K4 kissing-loop reporter” value under setting [1] was found to be 189 nM; the “apparent KD of K4 kissing-loop reporter” value under setting [2] was found to be 177 nM.

With “GCGCGUCAUGUCAGCGGAGACACUGUCGAUACCAGCGCCGCAAGGCGCCCUUGGCAGCGACGCGCUGGAGUGAUGUUCCAGCGUG [#2 Exclusion - Theophylline A Attempt #15 (HarryS)]”, the “apparent KD of K4 kissing-loop reporter” value was found to be 171 nM (input ligand: FMN 200 uM); 154 nM (input ligand: arginine 13.2 mM); 148 nM (input ligand: none); 143 nM under setting [1]; 159 nM under setting [2].

“GCUAAGGAGUGAUGUUCCAAGUGAUGUUAACGAGGACCGGUACGGCCGCCACUCGAUACGGCCGGAAAGUAAGAUAAACUACAGU [Same State - Tryptophan A (Freestyle 4)]”: the “apparent KD of K4 kissing-loop reporter” value is, setting by setting: (input ligand: FMN 200 uM) 77.5 nM; (input ligand: arginine 13.2 mM) 59.8 nM; (input ligand: none) 77.1 nM; under setting [1], 75.8 nM; under setting [2], 64.7 nM.

Turning to “GCUAAGUGAUGUUUAUGCCGCCGACCGGAUACCAGCUACUAGGCAAGCCCUUGGCAGCCGCUAUGUGACCGAUCAUUAGUUAUGU [theeternabot_exclusion_KL_Theo_A_6]”, the “apparent KD of K4 kissing-loop reporter” value by setting is: (input ligand: FMN 200 uM) 857 nM; (input ligand: arginine 13.2 mM) 734 nM; (input ligand: none) 913 nM; under setting [1], 790 nM; under setting [2], 682 nM.

In the case of “GCUACCUAGGCAGGAUAUAGACAUUGAGUGAUGUUCGAUGAUUAUCCAUAUUCCCGUCACAUAUGACUAGAAGGGCCUAGGUAGC”, the “apparent KD of K4 kissing-loop reporter” value was determined as 660 nM (input ligand: FMN 200 uM); 184 nM (input ligand: arginine 13.2 mM); 221 nM (input ligand: none); 228 nM under setting [1]; 211 nM under setting [2].

On to “GCUAUCUGAGCCCAGUGAUGUUGAGUGCUGAAGGAUAUGCGAUAGAGCAGAAGGUCAAGAACAUUGUUCGAUUAUCAAAACAAGU [theeternabot_exclusion_KL_FMN_A_35]”, for which the “apparent KD of K4 kissing-loop reporter” value is 264 nM (input ligand: FMN 200 uM); 264 nM (input ligand: arginine 13.2 mM); 272 nM (input ligand: none); 356 nM under setting [1]; 328 nM under setting [2].

As to “GCUAUGGUAGGAAGGAGCGCUUACUCGGUCAUAAGAGUGAUGUUCGAGACCGAGUAUUUAUAGCAGGUAGGUCGCCUACUAUAGC [Arginine B K4 6]”, the “apparent KD of K4 kissing-loop reporter” value runs as follows: (input ligand: FMN 200 uM) 68 nM; (input ligand: arginine 13.2 mM) 124 nM; (input ligand: none) 2.37 nM; under setting [1], 199 nM; under setting [2], 352 nM.

As to “GGAAUAACCUGGGAUACCAGUCGGAGGACUAGGGAUCGGAGUGAUGUUCUGGGAUGUUUCGGCCCUUGGCAGCUCUGGUUUUCCG [#2 Exclusion - Theophylline B Attempt #1 (HarryS)]”, the “apparent KD of K4 kissing-loop reporter” value (input ligand: FMN 200 uM) came out at 569 nM; the “apparent KD of K4 kissing-loop reporter” value (input ligand: arginine 13.2 mM) amounted to 286 nM; the “apparent KD of K4 kissing-loop reporter” value (input ligand: none) was found to be 551 nM; the “apparent KD of K4 kissing-loop reporter” value under setting [1] is 614 nM; the “apparent KD of K4 kissing-loop reporter” value under setting [2] was 443 nM.

In the case of “GGACGCCGGUCGGCCGCCACUCACAGCAGCCAGUGAUGUUGGAUUGUAGCGGAGUGAUGUUCCGAGAGGACCGGGACUGCAGUCU [Same State Tryptophan B GF 11]”, the “apparent KD of K4 kissing-loop reporter” value is, setting by setting: (input ligand: FMN 200 uM) 161 nM; (input ligand: arginine 13.2 mM) 135 nM; (input ligand: none) 153 nM; under setting [1], 114 nM; under setting [2], 137 nM.

For “GGACGCCGGUCGGCCGCCACUCACAGCAGUGAUGUUCCUGAGAAUGUAGCGGAGUGAUGUUCCGAGAGGACCGGGACUGCAGUUU [Same State Tryptophan B GF 8]”, the “apparent KD of K4 kissing-loop reporter” value by setting is: (input ligand: FMN 200 uM) 799 nM; (input ligand: arginine 13.2 mM) 644 nM; (input ligand: none) 777 nM; under setting [1], 875 nM; under setting [2], 840 nM.

Regarding “GGAGCCGAUAGUGAUACCAGCCAGUGAUGUUGGCGAAGUCUCAUUUUCGCUCUCGGUAAGGGCCCUUGGCAGCACUUACUCGGAA [Arledied]”, the “apparent KD of K4 kissing-loop reporter” value came out at 105 nM (input ligand: FMN 200 uM); 94 nM (input ligand: arginine 13.2 mM); 102 nM (input ligand: none); 95.9 nM under setting [1]; 104 nM under setting [2].

With “GGAGGAGAAUAUGAUACCAGCAGAGAGAGAGAGGAAGUAUAGUGAUGUUAUAUGAGAGAAUGCCCUUGGCAGCAUAAGACGCAGG [#07 K4 Theophylline B Same State]”, the “apparent KD of K4 kissing-loop reporter” value (input ligand: FMN 200 uM) came to 194 nM; the “apparent KD of K4 kissing-loop reporter” value (input ligand: arginine 13.2 mM) came to 114 nM; the “apparent KD of K4 kissing-loop reporter” value (input ligand: none) amounted to 110 nM; the “apparent KD of K4 kissing-loop reporter” value under setting [1] is 144 nM; the “apparent KD of K4 kissing-loop reporter” value under setting [2] amounted to 94.7 nM.

Take “GGAGGGAUCUCGGCCGCCACUCAUAAGAAAUGGGCCUCAGAAAUAUAGUGAUGUUAUGUAAAGAAGAGGACCGGGAGAAAGAAGG [ExTryptoB.Da]”: the “apparent KD of K4 kissing-loop reporter” value amounted to 390 nM (input ligand: FMN 200 uM); 202 nM (input ligand: arginine 13.2 mM); 324 nM (input ligand: none); 218 nM under setting [1]; 242 nM under setting [2].

Consider “GGAGGUUGGUGCGAUACCAGACCAGCAGUGAUGUUGCGCCAAAGUGAGUGAUGUUCACCGGUCCCUUGGCAGCGCAUUCCUUUAG [Same State Theophylline B GF 14]”, for which the “apparent KD of K4 kissing-loop reporter” value by setting is: (input ligand: FMN 200 uM) 964 nM; (input ligand: arginine 13.2 mM) 1110 nM; (input ligand: none) 1440 nM; under setting [1], 1120 nM; under setting [2], 1110 nM.

Turning to “GGAGUAACCUGGGAUACCAGUCGGAGGCCUAGGGAUCGGAGUGAUGUUCUGGGAUGUUUCGGCCCUUGGCAGCUCUGGGUCUCCG [#2 Exclusion - Theophylline B Attempt #2 (HarryS)]”, the “apparent KD of K4 kissing-loop reporter” value runs as follows: (input ligand: FMN 200 uM) 184 nM; (input ligand: arginine 13.2 mM) 105 nM; (input ligand: none) 151 nM; under setting [1], 158 nM; under setting [2], 144 nM.

For the sequence “GGAUAGGACAGAGGAUAUUGGUAGUGAUGUUACCAAAUAAAUAAACAGUCUACAAAGUAGGCUGACCAAGAAGGCUGUCCUAUCG [FmnBX 24 #SwitchBubble #StaticStem #Palindromic]”, the “apparent KD of K4 kissing-loop reporter” value was determined as 226 nM (input ligand: FMN 200 uM); 79.1 nM (input ligand: arginine 13.2 mM); 85.2 nM (input ligand: none); 80.1 nM under setting [1]; 74.7 nM under setting [2].

Turning to “GGAUAGGAUAGAGGAUAUGGAAAACACAAAAGUGACUUGUUGUGUUUAUCCAUAGGGAGUGAUGUUCCAGAAGGCUGUCCUAUCG [MatMod 23 - Jieux - Exclusion - FMN B]”, the “apparent KD of K4 kissing-loop reporter” value (input ligand: FMN 200 uM) was 229 nM; the “apparent KD of K4 kissing-loop reporter” value (input ligand: arginine 13.2 mM) was determined as 169 nM; the “apparent KD of K4 kissing-loop reporter” value (input ligand: none) was 169 nM; the “apparent KD of K4 kissing-loop reporter” value under setting [1] was determined as 164 nM; the “apparent KD of K4 kissing-loop reporter” value under setting [2] was 136 nM.

Regarding “GGAUAGGAUAGAGGAUAUGGGUUAGGCAAGAAUAACUUGUCUAGUAAAUCCAUGAGGAGUGAUGUUCCAGAAGGCUGUCCUAUCG [MatMod 4 - Jieux - Exclusion - FMN B]”, the “apparent KD of K4 kissing-loop reporter” value runs as follows: (input ligand: FMN 200 uM) 429 nM; (input ligand: arginine 13.2 mM) 125 nM; (input ligand: none) 117 nM; under setting [1], 127 nM; under setting [2], 98.3 nM.

Source of the values: the supplement of paper PMC9170038.
